Each block holds one substance with its values, some of them ahead of it.
Legend:
GLP-1 receptor [1] = target: GLP-1 receptor
GLP-1 receptor [2] = target: GLP-1 receptor; remark: listed apart in the source
GLP-1 receptor [3] = target: GLP-1 receptor; remark: listed apart in the source

Sequence of para-trifluoromethyldiazirine benzyl derivative of GLP-1 (peptide) (peptide): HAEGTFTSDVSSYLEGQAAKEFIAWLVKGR

agonist potency and efficacy (GLP-1 receptor [1]): 123 fold
Substance: para-trifluoromethyldiazirine benzyl derivative of GLP-1 (peptide)

Substance: Exenatide (peptide)
EC50 (pM), agonist potency, CRE-luciferase reporter (GLP-1 receptor [2]): 1.1 pM

agonist potency, CRE-luciferase reporter (GLP-1 receptor [3]): 50 fold
Substance: N-acetyl-GLP-1 (peptide)

degradation by DPP4, read as potency loss on human GLP-2R (GLP-2): > 97% | degradation by DPP4, read as potency loss in the GLP-1R agonist assay (GLP-1 (7-36) amide): > 99.8% | degradation by DPP4, read as potency loss in the GLP-1R agonist assay (Liraglutide): > 98%
Substance: dipeptidyl protease 4 (enzyme)

— patent US20190055279A1, “NOVEL POLYPEPTIDES WITH IMPROVED PROTEOLYTIC STABILITY, AND METHODS OF PREPARING AND USING SAME” (TUFTS UNIVERSITY, priority 2015, published 2019)
